In the supplement of paper PMC10567573:

B1: TMEM106C (parent)
chain: YVTTNVSLIPPRSEQLVNFTGKAE
B2: CDC25B (parent)
chain: KSPIAPCSLDKRVILIFHCEFSSE

Variants of: B1
Experiment: protein stability index of a GFP-peptide fusion (GPS, HEK-293T) (PSI 1-6); higher = more stable
Settings: c terminus: a fixed tail appended
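Also: lentivirally expressed fusions sorted by FACS into six bins by GFP to DsRed ratio, PSI derived from sequencing read proportions per bin multiplied by bin number.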

Protein stability index of substitutions, site by site:
S13: V 2.07 | W 1.18 | Y 2.2
E14: A 2.11 | D 1.46 | F 1.99 | G 1.59 | H 1.92 | I 2.17 | K 2.16 | L 2.27 | M 2.26 | N 1.8 | P 2.18 | Q 1.5 | R 1.87 | S 1.79 | T 2.79 | V 2 | W 2 | Y 2.19
Q15: A 1.5 | C 2.24 | D 2.08 | E 2.07 | F 1.5 | G 2.37 | H 2.33 | I 2.37 | K 1.43 | L 2.69 | M 1.7 | N 1.55 | P 2.28 | R 1.74 | S 1.96 | T 2.23 | V 2.17 | W 1.86 | Y 2.69
L16: A 2.14 | C 2.16 | D 2.05 | E 2.1 | F 1.88 | G 1.81 | H 1.49 | I 2.23 | K 1.9 | M 2.02 | N 1.66 | P 2.55 | Q 1.92 | R 1.95 | S 1.91 | T 1.79 | V 1.34 | W 2.26 | Y 1.73
V17: A 1.84 | C 2.19 | D 2.2 | E 2.24 | F 2.88 | G 1.98 | H 2.1 | I 2.24 | K 2.83 | L 2.3 | M 2.04 | N 1.62 | P 2.31 | Q 3.85 | R 1.41 | S 1.55 | T 1.91 | W 3.01 | Y 2.44
N18: A 2.02 | C 1.95 | D 3.25 | E 1.3 | F 2.28 | G 1.7 | H 2.38 | I 3.13 | K 2.71 | L 2.14 | M 2.37 | P 2.4 | Q 2.07 | R 2.33 | S 2.36 | T 1.62 | V 1.81 | W 3.06
F19: A 2.03 | C 2.06 | D 2.01 | E 2.7 | G 1.39 | H 2.56 | I 2.02 | K 2.25 | L 1.96 | M 1.9 | N 2 | P 2.03 | Q 2.54 | R 1.68 | S 2.71 | T 2.65 | V 2.28 | W 2.33 | Y 1.9
T20: A 2.27 | C 2.34 | D 1.95 | E 2.09 | F 2.31 | G 2.13 | H 1.86 | I 2.08 | K 2.11 | L 1.99 | M 3.02 | N 1.53 | P 2.29 | Q 1.66 | R 2.19 | S 1.51 | V 1.84 | W 2.85 | Y 2.86
G21: A 1.99 | C 1.83 | D 2.71 | E 2.49 | F 2.77 | H 2.1 | I 2.1 | K 1.59 | L 1.58 | M 3.92 | N 2.75 | P 3.07 | Q 2.3 | R 2.32 | S 1.6 | T 1.86 | V 2.12 | W 2.5 | Y 3.28
K22: A 2.23 | C 2.1 | D 2.08 | E 1.78 | F 2.26 | G 1.89 | H 1.96 | I 1.88 | L 1.96 | M 2.54 | N 2.04 | P 1.76 | Q 1.53 | R 1.8 | S 1.72 | T 2.14 | V 2.81 | W 3.19 | Y 1.61
A23: C 1.84 | D 2 | E 1.65 | F 2.06 | G 1.91 | H 2.47 | I 2.24 | K 2.23 | L 1.31 | M 1.81 | N 1.82 | P 1.77 | Q 1.74 | R 2.4 | S 1.54 | T 1.8 | V 2.3 | W 2.51 | Y 2.44
E24: A 2 | C 2.32 | D 2.58 | F 2.81 | G 1.64 | H 1.49 | I 2.32 | K 1.88 | L 2.08 | M 2.05 | N 2.92 | P 3.06 | Q 2.06 | R 1.48 | S 2.1 | T 2.75 | V 1.41 | W 2.93 | Y 2.7

Variants of: B2
Experiment: as above
Settings: c terminus: a fixed tail appended

Protein stability index: each site, then its substitutions
K1: F 2.7 | G 3.01 | I 1.11 | L 1.86 | N 1.96 | P 3.88 | S 3.48
S2: A 2.37 | D 3.82 | E 3.4 | F 3.02 | I 1.68 | M 1.13 | T 3.22 | W 4.11 | Y 3.15
P3: A 2.25 | G 1.9 | H 2.63 | I 2.38 | L 3.29 | M 3.46 | N 2.73 | Q 3.1 | T 2.17 | W 2.17
I4: D 1.16 | F 2.53 | G 4.68 | H 1.94 | K 3.59 | M 4.09 | N 2.64 | P 2.2 | S 2.89 | W 2.72 | Y 3.53
A5: D 2.57 | E 2.55 | F 2.93 | H 2.3 | I 2.65 | L 2.58 | M 1.72 | N 2.85 | Q 1.42 | S 2.48 | T 2.85 | W 2.46 | Y 3
P6: C 2.97 | F 3.05 | G 2.54 | H 2.23 | Q 4.6 | R 1.89 | V 1.39 | W 3.61 | Y 3.74
C7: A 2.03 | G 2.4 | H 3.31 | I 3.17 | K 2.56 | L 3.92 | M 2.15 | N 2.54 | P 2.65 | Q 2.01 | R 3.39 | S 2.13 | T 2.55 | V 3.75
S8: A 3.52 | C 3 | D 2.31 | E 1.45 | F 2.12 | G 3.16 | H 3.03 | I 2.17 | K 2.88 | L 1 | M 2.28 | T 4.2 | V 2.5 | W 1.81
L9: A 2.62 | C 2.46 | D 2.66 | F 2.64 | G 2.92 | I 4.08 | K 2.39 | M 2.53 | N 2.78 | P 3.63 | Q 2.42 | R 3.58 | S 2.4 | T 2.22 | V 2.37 | W 2.9 | Y 3.94
D10: A 2.95 | C 2.23 | F 2.42 | G 2.74 | H 2.05 | I 2.12 | M 2.48 | P 3.83 | Q 1.71 | S 2.26 | T 3.32 | V 2.67 | W 2.94 | Y 1.66
K11: C 2.52 | F 2.69 | H 2.1 | I 3.79 | L 2.35 | M 2.9
